Data reported in patent publication US20230193513A1 (TWIST BIOSCIENCE, published 2023).

Tests used:
Assay in all cases: cell-based or functional assay
[1] = biological target: T1, glucagon-like peptide-1 receptor (GLP1R) (Homo sapiens (Human), UniProt P43220 24-463)
[2] = biological target: T1, glucagon-like peptide-1 receptor (GLP1R); remark: listed apart in the source
[3] = biological target: T1, glucagon-like peptide-1 receptor (GLP1R); remark: listed apart in the source
[4] = biological target: T1, glucagon-like peptide-1 receptor (GLP1R); remark: listed apart in the source

T1 sequence (P43220 24-463): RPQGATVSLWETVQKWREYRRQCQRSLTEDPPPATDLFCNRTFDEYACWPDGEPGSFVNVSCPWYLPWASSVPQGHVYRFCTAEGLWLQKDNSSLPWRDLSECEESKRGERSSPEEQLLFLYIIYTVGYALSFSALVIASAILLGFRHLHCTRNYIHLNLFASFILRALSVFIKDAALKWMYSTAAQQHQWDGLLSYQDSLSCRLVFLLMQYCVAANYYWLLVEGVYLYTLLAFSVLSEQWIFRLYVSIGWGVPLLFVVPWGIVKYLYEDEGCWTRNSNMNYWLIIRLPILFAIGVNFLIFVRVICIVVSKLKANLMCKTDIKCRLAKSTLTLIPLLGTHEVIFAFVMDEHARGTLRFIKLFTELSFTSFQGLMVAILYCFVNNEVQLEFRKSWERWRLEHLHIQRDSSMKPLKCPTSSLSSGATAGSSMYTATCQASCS

| Binder | EC50 (nM) of GLP1 (7-36) in the cAMP assay after 100 nM IgG [1] [nM] | other results |
| --- | --- | --- |
| GLP1R-239 (antibody, human IgG2, lambda) heavy: QVQLVESGGGVVQPGRSLRLSCAASGFDFSNYGMHWVRQAPGKGLEWVADISYEGSNKYYADSVKGRFTISRDNSKNTLYLQMNSLRAEDTAVYYCAKHMSMQSQGLDNLAARDFINWLIQTKITDGFELSRADLVGDAFDVWGQGTLVTVSSASASTKGPSVFPLAPCSRSTSESTAALGCLVKDYFPEPVTVSWNSGALTSGVHTFPAVLQSSGLYSLSSVVTVPSSNFGTQTYTCNVDHKPSNTKVDKTVERKCCVECPPCPAPPVAGPSVFLFPPKPKDTLMISRTPEVTCVVVDVSHEDPEVQFNWYVDGVEVHNAKTKPREEQFNSTFRVVSVLTVVHQDWLNGKEYKCKVSNKGLPAPIEKTISKTKGQPREPQVYTLPPSREEMTKNQVSLTCLVKGFYPSDIAVEWESNGQPENNYKTTPPMLDSDGSFFLYSKLTVDKSRWQQGNVFSCSVMHEALHNHYTQKSLSLSPG light: QSVLTQPPSVSAAPGQKVTISCSGSTSNIEKNYVSWYQQLPGTAPKLLIYGNDQRPSGIPDRFSGSKSGTSATLGITGLQTGDEADYYCGTWENRLSAVVFGGGTKLTVLGQPKAAPSVTLFPPSSEELQANKATLVCLISDFYPGAVTVAWKADSSPVKAGVETTTPSKQSNNKYAASSYLSLTPEQWKSHRSYSCQVTHEGSTVEKTVAPTECS | 0.0799 |  |
| GLP1R-241 (antibody, human IgG2, lambda) heavy: QVQLVQSGAEVKKPGSSVKVSCKASGGTFSDYAISWVRQAPGQGLEWMGGIIPIFGTTNYAQKFQGRVTITADESTSTAYMELSSLRSEDTAVYYCAKHMSMQGSVAGGTFTSDVSSYLEGQAAKEFIAWLVKGGPSFIRADLVGDAFDVWGQGTLVTVSSASASTKGPSVFPLAPCSRSTSESTAALGCLVKDYFPEPVTVSWNSGALTSGVHTFPAVLQSSGLYSLSSVVTVPSSNFGTQTYTCNVDHKPSNTKVDKTVERKCCVECPPCPAPPVAGPSVFLFPPKPKDTLMISRTPEVTCVVVDVSHEDPEVQFNWYVDGVEVHNAKTKPREEQFNSTFRVVSVLTVVHQDWLNGKEYKCKVSNKGLPAPIEKTISKTKGQPREPQVYTLPPSREEMTKNQVSLTCLVKGFYPSDIAVEWESNGQPENNYKTTPPMLDSDGSFFLYSKLTVDKSRWQQGNVFSCSVMHEALHNHYTQKSLSLSPG light: QSVLTQPPSVSAAPGQKVTISCSGISSNIGNNYVSWYQQLPGTAPKLLIYDDDQRPSGIPDRFSGSKSGTSATLGITGLQTGDEADYYCGTWDNILSAAVFGGGTKLTVLGQPKAAPSVTLFPPSSEELQANKATLVCLISDFYPGAVTVAWKADSSPVKAGVETTTPSKQSNNKYAASSYLSLTPEQWKSHRSYSCQVTHEGSTVEKTVAPTECS | 0.103 | fold difference of the EC50 against no antibody [2]: 1.7 fold; EC50 (nM) of GLP1 (7-36)-induced signaling with GLP1R IgG (+100 nM) [3]: 0.103 nM |
| GLP1R-242 (antibody, human IgG2, lambda) heavy: QVQLVQSGAEVKKPGSSVKVSCKASGGTFSSYEISWVRQAPGQGLEWMGGIIPILGIANYAQKFQGRVTITADESTSTAYMELSSLRSEDTAVYYCAKHMSMQADTGTFTSDVSSYLEGQAAKEFIAWLVKGEFSSRADLVGDAFDVWGQGTLVTVSSASASTKGPSVFPLAPCSRSTSESTAALGCLVKDYFPEPVTVSWNSGALTSGVHTFPAVLQSSGLYSLSSVVTVPSSNFGTQTYTCNVDHKPSNTKVDKTVERKCCVECPPCPAPPVAGPSVFLFPPKPKDTLMISRTPEVTCVVVDVSHEDPEVQFNWYVDGVEVHNAKTKPREEQFNSTFRVVSVLTVVHQDWLNGKEYKCKVSNKGLPAPIEKTISKTKGQPREPQVYTLPPSREEMTKNQVSLTCLVKGFYPSDIAVEWESNGQPENNYKTTPPMLDSDGSFFLYSKLTVDKSRWQQGNVFSCSVMHEALHNHYTQKSLSLSPG light: QSVLTQPPSVSAAPGQKVTISCSGSSSNIENNDVSWYQQLPGTAPKLLIYGNDQRPSGIPDRFSGSKSGTSATLGITGLQTGDEADYYCGTWDNTLSAGVFGGGTKLTVLGQPKAAPSVTLFPPSSEELQANKATLVCLISDFYPGAVTVAWKADSSPVKAGVETTTPSKQSNNKYAASSYLSLTPEQWKSHRSYSCQVTHEGSTVEKTVAPTECS | ~0.0653 |  |
| GLP1R-238 (antibody, human IgG2, lambda, V domains shown) VH: QVQLVQSGAEVKKPGSSVKVSCKASGGSFSSHAISWVRQAPGQGLEWMGGIIPIFGAPNYAQKFQGRVTITADESTSTAYMELSSLRSEDTAVYYCARANQHFSQAGRAARVPGPSSSLGPRGYHYYGMDVWGQGTLVTVSS VL: QSVLTQPPSVSAAPGQKVTISCSGSTSNIANNYVSWYQQLPGTAPKLLIYANNRRPSGIPDRFSGSKSGTSATLGITGLQTGDEADYYCGAWDVRLDVGVFGGGTKLTVLG | 0.0879 |  |
| GLP1R-59-2 (antibody) chain 1: QVQLVESGGGVVQPGRSLRLSCAASGFTFSNYGMSWVRQAPGKGLEWVAVISYDAGNKYYADSVKGRFTISRDNSKNTLYLQMNSLRAEDTAVYYCARDMYYDFETVVEGIQWYEALKAGKLGEVVPADDAFDIWGQGTLVTVSSASTKGPSVFPLAPCSRSTSESTAALGCLVKDYFPEPVTVSWNSGALTSGVHTFPAVLQSSGLYSLSSVVTVPSSNFGTQTYTCNVDHKPSNTKVDKTVERKCCVECPPCPAPPVAGPSVFLFPPKPKDTLMISRTPEVTCVVVDVSHEDPEVQFNWYVDGVEVHNAKTKPREEQFNSTFRVVSVLTVVHQDWLNGKEYKCKVSNKGLPAPIEKTISKTKGQPREPQVYTLPPSREEMTKNQVSLTCLVKGFYPSDIAVEWESNGQPENNYKTTPPMLDSDGSFFLYSKLTVDKSRWQQGNVFSCSVMHEALHNHYTQKSLSLSPGK chain 2: HGEGTFTSDVSSYLEEQAAKEFIAWLVKGGGGGGGSGGGGSGGGGSQSALTQPASVSGSPGQSITISCTGTSNDIGTYNYVSWYQQHPGKAPKLMIYDVSGRPSGVSNRFSGSKSGNTASLTISGLQAEDEADYYCSSYTTSSTEVFGGGTKLTVLGQPKAAPSVTLFPPSSEELQANKATLVCLISDFYPGAVTVAWKADSSPVKAGVETTTPSKQSNNKYAASSYLSLTPEQWKSHRSYSCQVTHEGSTVEKTVAPTECS |  | EC50 (nM) of the IgG as agonist, functional assay on GLP-1R overexpressing cells [4]: 0.842 nM |
| GLP1R-244 (antibody, human IgG2, lambda, V domains shown) VH: QVQLVQSGAEVKKPGSSVKVSCKASGGTFSSYAISWVRQAPGQGLEWMGGIIPIFGTANYAQKFQGRVTITADESTSTAYMELSSLRSEDTAVYYCARANQHFAATGAGEGQAAKEFIAWLVKGRVEIGYHYYGMDVWGQGTLVTVSS VL: QSVLTQPPSVSAAPGQKVTISCSGSSSNIGNNVVSWYQQLPGTAPKLLIYDNDKRRSGIPDRFSGSKSGTSATLGITGLQTGDEADYYCGSWDTSLSVWVFGGGTKLTVLG | 0.154 |  |
| GLP1R-243 (antibody, human IgG2, lambda, V domains shown) VH: QVQLVQSGAEVKKPGSSVKVSCKASGGTFSTYGINWVRQAPGQGLEWMGGIIPIFGTANYAQKFQGRVTITADESTSTAYMELSSLRSEDTAVYYCARANQHFFGKGDNLAARDFINWLIQTKITDGSNPGYHYYGMDVWGQGTLVTVSS VL: QSVLTQPPSVSAAPGQKVTISCSGSRSNIGKNYVSWYQQLPGTAPKLLIYENNERPSGIPDRFSGSKSGTSATLGITGLQTGDEADYYCSSYTTSNTQVFGGGTKLTVLG | 0.128 |  |
| GLP1R-240 (antibody, human IgG2, lambda) heavy: QVQLVQSGAEVKKPGSSVKVSCKASGGTFNNYGISWVRQAPGQGLEWMGGIIPVFGTANYAQKFQGRVTITADESTSTAYMELSSLRSEDTAVYYCARDMYYDFFGLGTFTSDVSSYLEGQAAKEFIAWLVKGVSPEVVPADDAFDIWGQGTLVTVSSASASTKGPSVFPLAPCSRSTSESTAALGCLVKDYFPEPVTVSWNSGALTSGVHTFPAVLQSSGLYSLSSVVTVPSSNFGTQTYTCNVDHKPSNTKVDKTVERKCCVECPPCPAPPVAGPSVFLFPPKPKDTLMISRTPEVTCVVVDVSHEDPEVQFNWYVDGVEVHNAKTKPREEQFNSTFRVVSVLTVVHQDWLNGKEYKCKVSNKGLPAPIEKTISKTKGQPREPQVYTLPPSREEMTKNQVSLTCLVKGFYPSDIAVEWESNGQPENNYKTTPPMLDSDGSFFLYSKLTVDKSRWQQGNVFSCSVMHEALHNHYTQKSLSLSPG light: QSVLTQPPSVSAAPGQKVTISCSGSSSSIGNNYVSWYQQLPGTAPKLLIYANNKRPSGIPDRFSGSKSGTSATLGITGLQTGDEADYYCATWSSSPRGWVFGGGTKLTVLGQPKAAPSVTLFPPSSEELQANKATLVCLISDFYPGAVTVAWKADSSPVKAGVETTTPSKQSNNKYAASSYLSLTPEQWKSHRSYSCQVTHEGSTVEKTVAPTECS | 0.0654 |  |
